Target: 35S-cysteine-labelled 26 kD proTNFα (in vitro transcribed/translated)

B1: TNFα convertase purified from HL60 cell membrane fraction (identified as PR-3) (protein)
chain: IVGGHEAQPHSRPYMASLQMRGNPGSHFCGGTLIHPSFVLTAAHCLRDIPQRLVNVVLGAHNVRTQEPTQQHFSVAQVFLNNYDAENKLNDVLLIQLSSPANLSASVATVQLPQQDQPVPHGTQCLAMGWGRVGAHDPPAQVLQELNVTVVTFFCRPHNICTFVPRRKAGICFGDSGGPLICDGIIQGIDSFVIWGCATRLFPDFFTRVALYVDWIRSTLR
cleavage of 26 kD proTNFα to the 17 kD mature form: The purified convertase was shown to cleave the 26 kD proTNFα to the 17 kD mature form.

Reference: patent US6586222
